According to the supplement of paper PMC9112550, “Optimization of the antimicrobial peptide Bac7 by deep mutational scanning” (BMC Biology, 2022):

The sequences below were run on Escherichia coli TOP10 (assay: shrunken log2 fold change of peptide-encoding DNA abundance (4.5 h post-induction vs induction); higher = less antimicrobial activity (less host growth inhibition)). Conditions: time post-induction: 4.5 h; library: site-saturation at positions 5, 18, 19, 20.
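Further: peptides expressed intracellularly from a pBAD plasmid library in pooled LB shake-flask culture, induced with 0.3% L-arabinose, DNA abundance read by NGS, three biological replicates, DESeq2 with apeglm shrinkage.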

Sequence | shrunken log2 fold change
RRIRKRPPRLPRPRPRPFFNPRP | 0.0296
RRIRTRPPRLPRPRPRPGQNPRP | 0.138
RRIRCRPPRLPRPRPRPESNPRP | 0.00481
RRIRSRPPRLPRPRPRPRATPRP | 0.301
RRIRKRPPRLPRPRPRPYGNPRP | -0.135
RRIRYRPPRLPRPRPRPNIDPRP | -1.61
RRIRVRPPRLPRPRPRPKSWPRP | 0.224
RRIRPRPPRLPRPRPRPNTHPRP | -0.00792
RRIRMRPPRLPRPRPRPGRWPRP | 1.66
RRIRPRPPRLPRPRPRPIVLPRP | -0.772
RRIRYRPPRLPRPRPRPFSTPRP | -0.0961
RRIRTRPPRLPRPRPRPCKQPRP | -0.254
RRIRVRPPRLPRPRPRPIYTPRP | -0.279
RRIRVRPPRLPRPRPRPTKLPRP | -0.121
RRIRHRPPRLPRPRPRPRCIPRP | -0.0991
RRIRKRPPRLPRPRPRPLCQPRP | 0.206
RRIRARPPRLPRPRPRPLCDPRP | 2.32
RRIRCRPPRLPRPRPRPQSMPRP | -0.419
RRIRFRPPRLPRPRPRPEWYPRP | -0.361
RRIRGRPPRLPRPRPRPYMTPRP | 0.109
RRIRKRPPRLPRPRPRPSVDPRP | 0.0884
RRIRERPPRLPRPRPRPMVTPRP | -0.0939
RRIRWRPPRLPRPRPRPIQAPRP | -0.0237
RRIRSRPPRLPRPRPRPCIAPRP | -0.22
RRIRPRPPRLPRPRPRPGIPPRP | -0.157

Sequence | shrunken log2 fold change
RRIRWRPPRLPRPRPRPQDRPRP | -0.0199
RRIRGRPPRLPRPRPRPDRGPRP | -0.123
RRIRPRPPRLPRPRPRPRMGPRP | 0.38
RRIRGRPPRLPRPRPRPMHMPRP | 0.347
RRIRKRPPRLPRPRPRPEASPRP | 0.497
RRIRIRPPRLPRPRPRPPWEPRP | -0.21
RRIRNRPPRLPRPRPRPRWLPRP | 0.558
RRIRVRPPRLPRPRPRPCKCPRP | -0.239
RRIRNRPPRLPRPRPRPHYRPRP | -0.0488
RRIRVRPPRLPRPRPRPIMSPRP | -0.0851
RRIRSRPPRLPRPRPRPADSPRP | -0.176
RRIRFRPPRLPRPRPRPSMRPRP | 0.377
RRIRVRPPRLPRPRPRPTQQPRP | 0.346
RRIRNRPPRLPRPRPRPEQGPRP | 0.111
RRIRGRPPRLPRPRPRPRPTPRP | 0.906
RRIRYRPPRLPRPRPRPYKSPRP | 0.0233
RRIRQRPPRLPRPRPRPPWYPRP | -0.226
RRIRTRPPRLPRPRPRPQGMPRP | 0.0427
RRIRVRPPRLPRPRPRPEGTPRP | -0.00568
RRIRWRPPRLPRPRPRPIHPPRP | -0.117
RRIRTRPPRLPRPRPRPGCAPRP | 0.515
RRIRGRPPRLPRPRPRPIMKPRP | 0.227
RRIRKRPPRLPRPRPRPWCRPRP | -0.189
RRIRARPPRLPRPRPRPGRLPRP | 0.895
RRIRLRPPRLPRPRPRPDIPPRP | -0.0741

Sequence | shrunken log2 fold change
RRIRYRPPRLPRPRPRPKNQPRP | -0.777
RRIRCRPPRLPRPRPRPQLNPRP | -0.188
RRIRHRPPRLPRPRPRPRGWPRP | 0.629
RRIRKRPPRLPRPRPRPNDPPRP | -0.0515
RRIRGRPPRLPRPRPRPEYFPRP | 0.11
RRIRIRPPRLPRPRPRPFSCPRP | -0.534
RRIRWRPPRLPRPRPRPMQFPRP | 0.104
RRIRKRPPRLPRPRPRPQMKPRP | -0.0666
RRIRCRPPRLPRPRPRPFGHPRP | 0.0616
RRIRARPPRLPRPRPRPFRFPRP | 0.0596
RRIRFRPPRLPRPRPRPHVKPRP | -0.0318
RRIRYRPPRLPRPRPRPTDRPRP | -0.144
RRIRQRPPRLPRPRPRPNFTPRP | -0.186
RRIRLRPPRLPRPRPRPCHTPRP | -0.173
RRIRIRPPRLPRPRPRPYKKPRP | -0.0756
RRIRDRPPRLPRPRPRPNDEPRP | 0.418
RRIRHRPPRLPRPRPRPTFWPRP | 0.179
RRIRHRPPRLPRPRPRPWRQPRP | 0.0449
RRIRLRPPRLPRPRPRPCEGPRP | -0.199
RRIRRRPPRLPRPRPRPLHIPRP | 0.212
RRIRIRPPRLPRPRPRPHTMPRP | -0.776
RRIRLRPPRLPRPRPRPEGPPRP | 0.539
RRIRRRPPRLPRPRPRPCYKPRP | -0.202
RRIRKRPPRLPRPRPRPLINPRP | -0.149
RRIRNRPPRLPRPRPRPSMFPRP | -0.458

Sequence | shrunken log2 fold change
RRIRCRPPRLPRPRPRPKPYPRP | 0.179
RRIRMRPPRLPRPRPRPALHPRP | 0.791
RRIRQRPPRLPRPRPRPNGTPRP | 1.1
RRIRYRPPRLPRPRPRPFQQPRP | -0.0176
RRIRIRPPRLPRPRPRPWMPPRP | -0.131
RRIRIRPPRLPRPRPRPPVYPRP | -0.288
RRIRTRPPRLPRPRPRPQSAPRP | -0.0745
RRIRRRPPRLPRPRPRPYVWPRP | -0.216
RRIRQRPPRLPRPRPRPQHIPRP | -0.357
RRIRRRPPRLPRPRPRPVMNPRP | 0.0331
RRIRGRPPRLPRPRPRPYHRPRP | -0.203
RRIRKRPPRLPRPRPRPYSPPRP | -0.23
RRIRWRPPRLPRPRPRPQKTPRP | 0.119
RRIRCRPPRLPRPRPRPLEMPRP | -0.249
RRIRRRPPRLPRPRPRPWHSPRP | -0.254
RRIRIRPPRLPRPRPRPVFHPRP | -0.936
RRIRTRPPRLPRPRPRPVAAPRP | 0.389
RRIRQRPPRLPRPRPRPISFPRP | -0.0842
RRIRERPPRLPRPRPRPSQVPRP | -0.0606
RRIRLRPPRLPRPRPRPDTEPRP | -0.0195
RRIRSRPPRLPRPRPRPFEVPRP | -0.109
RRIRGRPPRLPRPRPRPEQNPRP | 1.31
RRIRHRPPRLPRPRPRPTSVPRP | -0.0283
RRIRMRPPRLPRPRPRPIAVPRP | -0.015
RRIRMRPPRLPRPRPRPTWYPRP | -0.112

Sequence | shrunken log2 fold change
RRIRARPPRLPRPRPRPNDVPRP | 0.128
RRIRRRPPRLPRPRPRPPATPRP | 0.958
RRIRHRPPRLPRPRPRPGGCPRP | 0.165
RRIRMRPPRLPRPRPRPCRVPRP | 0.00805
RRIRFRPPRLPRPRPRPCLKPRP | -0.148
RRIRCRPPRLPRPRPRPRFRPRP | 0.201
RRIRPRPPRLPRPRPRPTAGPRP | 0.252
RRIRNRPPRLPRPRPRPDHFPRP | -0.0062
RRIRWRPPRLPRPRPRPCPYPRP | -0.271
RRIRRRPPRLPRPRPRPLGVPRP | 0.238
RRIRMRPPRLPRPRPRPQIHPRP | 0.149
RRIRLRPPRLPRPRPRPFILPRP | -0.978
RRIRPRPPRLPRPRPRPSSWPRP | 0.104
RRIRKRPPRLPRPRPRPGHVPRP | -0.165
RRIRTRPPRLPRPRPRPFAMPRP | -0.348
RRIRDRPPRLPRPRPRPTCCPRP | 0.104
RRIRKRPPRLPRPRPRPGCNPRP | 0.754
RRIRWRPPRLPRPRPRPYRRPRP | -0.0183
RRIRWRPPRLPRPRPRPYHVPRP | -0.141
RRIRTRPPRLPRPRPRPFIRPRP | 0.00496
RRIRKRPPRLPRPRPRPCQAPRP | 0.157
RRIRARPPRLPRPRPRPIIIPRP | -0.235
RRIRWRPPRLPRPRPRPGTAPRP | 0.392
RRIRIRPPRLPRPRPRPDKCPRP | -0.0188
RRIRFRPPRLPRPRPRPVNFPRP | -0.39

Sequence | shrunken log2 fold change
RRIRRRPPRLPRPRPRPGEEPRP | 0.139
RRIRMRPPRLPRPRPRPYAQPRP | -0.291
RRIRIRPPRLPRPRPRPNIPPRP | -0.818
RRIRCRPPRLPRPRPRPCNYPRP | -1.4
RRIRTRPPRLPRPRPRPSSTPRP | -0.604
RRIRRRPPRLPRPRPRPMSRPRP | -0.0357
RRIRNRPPRLPRPRPRPNHRPRP | -0.216
RRIRIRPPRLPRPRPRPVEDPRP | -0.158
RRIRERPPRLPRPRPRPMPSPRP | 0.156
RRIRARPPRLPRPRPRPEMPPRP | 0.981
RRIRMRPPRLPRPRPRPAPRPRP | 1.72
RRIRMRPPRLPRPRPRPLPAPRP | 2.13
RRIRGRPPRLPRPRPRPMPKPRP | 0.884
RRIRVRPPRLPRPRPRPMDMPRP | -0.946
RRIRGRPPRLPRPRPRPTFYPRP | 0.264
RRIRVRPPRLPRPRPRPHYDPRP | -0.379
RRIRRRPPRLPRPRPRPHSDPRP | -0.0198
RRIRLRPPRLPRPRPRPTIWPRP | 0.203
RRIRWRPPRLPRPRPRPRPKPRP | 0.697
RRIRIRPPRLPRPRPRPFTEPRP | 0.0282
RRIRNRPPRLPRPRPRPLTAPRP | -0.221
RRIRERPPRLPRPRPRPIYVPRP | -1.09
RRIRKRPPRLPRPRPRPTSSPRP | 0.0586
RRIRLRPPRLPRPRPRPYMEPRP | 0.039
RRIRCRPPRLPRPRPRPGRFPRP | 0.0435
